The labels stand for the following.
T1: biotinylated α-cobratoxin from Naja kaouthia (Naja kaouthia, biotin through amine coupling (NHS-PEG4-Biotin), sites not stated)
T1 chain: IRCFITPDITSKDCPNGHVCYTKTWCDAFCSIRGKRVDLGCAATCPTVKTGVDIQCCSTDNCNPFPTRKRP

B1: A01 Fab (Fab, V domains shown)
VH: QVQLVQSGAEVKKPGSSVKVSCKASGGTFSSYAISWVRQAPGQGLEWMGGIIPIFGTANYAQKFQGRVTITADESTSTAYMELRSLRSDDTAVYYCARDNLGYCSGGSCYSDYYYYYMDVWGQGTLVTVSS
VL: SYELTQPPSVSVAPGRTATITCEGDNIGQQIVHWYQQKPGQAPVAVISSDSDRPSGIPERFSGSNSGNTATLTISRVEAGDEADYYCQVWDSGSDHVVFGGGTKVTVL
B2: G09 Fab (Fab, V domains shown)
VH: B1 VH
VL: SYELTQPPSVSVAPGRTATITCEGDNIGQQIVHWYRQKSDQAPVVVVYDGSRRPSGIPERFSGSNSGNTATLTISRVEAGDEADYYCQVWDITSDHVVFGGGTQLTVL
B3: B11 Fab (Fab, V domains shown)
VH: B1 VH
VL: SYELTQPPSVSVAPGQTATITCGGHNIGSNIVHWYHQKPGQAPELVISHNTNRPSGIPERFSGSNSGSTATLTISRVEAVDEADYYCQVWDSSSEHVVFGGGTKVTVL
B4: C05 Fab, parental mAb 368_01_C05, with the N-glycosylation site of CDR-L3 removed (C05-NS) (Fab, V domains shown)
VH: B1 VH
VL: NFMLTQPHSVSESPGKTVTISCTRSSGSIASTYVHWYQQRPGSAPTTVIYEDNQRPSGVPDRFSGSIDSSSNSASLTISGLKTEDEADYYCQSYDSSSGSVVFGGGTKLTVL
B5: A04 Fab (Fab, V domains shown)
VH: B1 VH
VL: SYELTQPPSMSVAPGQTARITCGGDYIGGESVHWYQQKPGRAPVAVVYDDTHRPSGIPERFSGANSGNTATLTISKVEAGDEADYYCQVWDVSSDHVVFGGGTKLTVL
B6: A12 Fab (Fab, V domains shown)
VH: B1 VH
VL: B4 VL with I20F, S28R, A30V, T32D, S98N, G99A, S100Y, L109V
B7: 368_01_C05 Fab with the CDR-L3 glycosylation site at Asn95 removed (Fab, V domains shown)
VH: B1 VH
VL: B4 VL
notes: also called parent mAb; parental mAb
B8: E01 Fab (Fab, V domains shown)
VH: B1 VH
VL: NFMLTQPRSVSESPGKTVTISCTRSSGSIGSDYVHWYQQRPGSSPTTVIYEDNRRPSGVPDRFSGSIASSANSASLTISGLRPEDEADYYCQSYDSTTNHVVFGGGTKVTVL
B9: A01 scFv with His95b (CDR-L3) substituted to alanine (scFv, V domains shown)
VH: B1 VH
VL: B1 VL with H96A
notes: also called A01-H95bA; source: E. coli BL21(DE3), in culture supernatant
B10: A01 scFv with His34 (CDR-L1) substituted to alanine (scFv, V domains shown)
VH: B1 VH
VL: B1 VL with H33A
notes: also called A01-H34A; source: E. coli BL21(DE3), in culture supernatant
B11: D11 scFv with C-terminal 6xHis-FLAG extension (scFv, V domains shown)
VH: B1 VH
VL: B4 VL with H8R, A30G, T32D, A44S, S96R, S98N, G99H, S100E
notes: also called original D11; source: E. coli BL21(DE3); culture supernatant (DELFIA); purified (HisTrap, SEC)
B12: D11 scFv with serine at position 32 (CDR-L1) and histidine at position 49 (FWR-2) (scFv, V domains shown)
VH: B1 VH
VL: B4 VL with H8R, A30G, T32D, Y33S, A44S, Y50H, S96R, S98N, G99H, S100E
notes: also called D11-Y32S-Y49H (name built from the text: serine at position His32 of D11-Y32H-Y49H); source: E. coli BL21(DE3), in culture supernatant
B13: A01 scFv with C-terminal 6xHis-FLAG extension (scFv, V domains shown)
VH: B1 VH
VL: B1 VL
notes: also called original A01 scFv; source: E. coli BL21(DE3); culture supernatant (DELFIA); purified (HisTrap, SEC)
B14: D11_Y49S scFv (scFv, V domains shown)
VH: B1 VH
VL: B4 VL with H8R, A30G, T32D, A44S, Y50S, S96R, S98N, G99H, S100E
notes: source: E. coli BL21(DE3)
B15: D11 scFv (scFv, V domains shown)
VH: B1 VH
VL: B4 VL with H8R, A30G, T32D, A44S, S96R, S98N, G99H, S100E
B16: D11_E50A scFv (scFv, V domains shown)
VH: B1 VH
VL: B4 VL with H8R, A30G, T32D, A44S, E51A, S96R, S98N, G99H, S100E
notes: source: E. coli BL21(DE3)
B17: A01 scFv (scFv, V domains shown)
VH: B1 VH
VL: B1 VL
B18: D11_Y49A scFv (scFv, V domains shown)
VH: B1 VH
VL: B4 VL with H8R, A30G, T32D, A44S, Y50A, S96R, S98N, G99H, S100E
notes: source: E. coli BL21(DE3)

Residue numbers refer to the chain shown, from its start. Names and notes keep the numbering of the source. Values joined by “and” are separate entries in the source; they are usually repeats but may differ in a detail not shown here. Equal values may be shown once.

We go through 18 molecules from article PMC12439581 (mAbs, 2025).

In the first experiment the target is T1, biotinylated α-cobratoxin from Naja …. In words: BLI. The conditions noted are these: both partners purified.
With B1, the on-rate constant (kon) amounted to 44000 M⁻¹ s⁻¹.
Consider B2, for which the equilibrium dissociation constant (Kd) is 4.2 ± 2.8 nM and the kon is 71000 M⁻¹ s⁻¹.
B3 displayed a Kd of 5.7 ± 1.1 nM and a kon of 59000 M⁻¹ s⁻¹.
As to B4, the Kd amounted to 71.2 ± 5.4 nM; the off-rate (koff) was 0.00366 s⁻¹ and 0.00946 s⁻¹; the kon worked out at 51000 M⁻¹ s⁻¹.
Molecule B5 yielded a dissociation constant (Kd) of 15.3 ± 14 nM and an association rate constant (kon) of 62000 M⁻¹ s⁻¹.

The target of a further experiment is T2, biotinylated α-cobratoxin from Naja kaouthia (Naja kaouthia, UniProt P01391). In words: BLI. The following applies: both partners purified.
As for B6, the binding result was “binds”.
On to B7, for which the binding result was “binds”.
Take B8: the binding result was “binds”.

The next experiment addresses T2, biotinylated α-cobratoxin from Naja …. The experiment is described as follows: DELFIA (dissociation-enhanced lanthanide fluorescence immunoassay). The following applies: one partner purified.
On to B9, for which the “fold reduction of the pH 7.4/pH 5.8 ratio against the A01 scFv” value was about 3 fold.
As for B10, the “pH 7.4/pH 5.8 ratio of toxin remaining bound (TRF signal)” value came out at 1.6.
As to B11, the “pH 7.4/pH 5.8 ratio of toxin remaining bound (TRF signal)” value is about 1.3 and the “pH 7.4/pH 5.8 ratio of toxin remaining bound (fold-difference)” value is about 1.2 fold.
Turning to B12, the binding result is given as “binds”.
In the case of B13, the “pH 7.4/pH 5.8 ratio of toxin remaining bound (TRF signal)” value is about 12 and the “pH 7.4/pH 5.8 ratio of toxin remaining bound (fold-difference)” value was about 13.4 fold.

For another experiment, the target named is T1, biotinylated α-cobratoxin from Naja …. In words: BLI. The following applies: both partners purified. The source holds these as a separate data set.
As to B14, the equilibrium dissociation constant (Kd) was determined as 48.8 nM; the koff was 0.00195 s⁻¹ and 0.00416 s⁻¹; the kon turned out to be 40000 M⁻¹ s⁻¹.
In the case of B15, binding was put at a Kd of 44.4 nM; the off-rate (koff) is 0.00177 s⁻¹ and 0.00189 s⁻¹; the kon was determined as 39900 M⁻¹ s⁻¹.
Turning to B16, the dissociation constant Kd is 158 nM; the dissociation rate constant (koff) was 0.00469 s⁻¹ and 0.0134 s⁻¹; the kon stood at 29700 M⁻¹ s⁻¹.
On to B17, for which the Kd is 52.2 nM and the association rate constant (kon) came to 43200 M⁻¹ s⁻¹.
With B18, the affinity, expressed as Kd, was 68.8 nM; the koff was 0.0018 s⁻¹ and 0.00355 s⁻¹; the on-rate constant (kon) was determined as 26200 M⁻¹ s⁻¹.

The target of a further experiment is T3, biotinylated α-elapitoxin-Dpp2d from Dendroaspis polylepis (Dendroaspis polylepis (black mamba), UniProt C0HJD7). In words: BLI; […]; association at pH 7.4, dissociation at pH 7.4; 1:1 global fit, […]. The following applies: both partners purified. (BLI is a label-free optical method that tracks binding on a fibre tip over time.)
T3 sequence (C0HJD7 whole entry): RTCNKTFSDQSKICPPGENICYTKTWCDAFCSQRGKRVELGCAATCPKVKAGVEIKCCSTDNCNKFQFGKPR
B1 displayed a kon of 84000 M⁻¹ s⁻¹.
Regarding B2, binding was characterised by a dissociation constant (Kd) of 1 ± 0.5 nM, the koff worked out at 0.00015 s⁻¹ and the on-rate constant (kon) stood at 156000 M⁻¹ s⁻¹.
For B3, in that order: 1.4 ± 0.1 nM, 9e-05 s⁻¹ and 69000 M⁻¹ s⁻¹.
Molecule B4 displayed an equilibrium dissociation constant (Kd) of 4.6 ± 0.47 nM, a koff of 0.00034 s⁻¹ and a kon of 76000 M⁻¹ s⁻¹.
In turn, B5 had a Kd of 0.6 ± 0.4 nM, a koff of 9e-05 s⁻¹ and a kon of 161000 M⁻¹ s⁻¹.

The next experiment concerns the target T3, biotinylated α-elapitoxin-Dpp2d from …. In words: BLI; […]; association at pH 7.4, dissociation at pH 5.5; 1:1 global fit. The following applies: both partners purified.
B1 gave an off-rate (koff) of 0.00295 s⁻¹.
The same measure, in the same setting: with B2 the figure was 0.00035 s⁻¹.
Same read-out and setting: with B3 the figure was 0.00049 s⁻¹; with B4, 0.00072 s⁻¹; with B5, 0.00024 s⁻¹.

Usually kon stands for a measure of how fast the partners come together. A higher kon goes with faster complex formation. What is called Kd is the concentration at which binding is half-saturated. In general, koff refers to a measure of how fast the partners let go of each other. High values mean fast dissociation, low ones slow dissociation.
